{"source": "patent CN113234166A", "about": "(SHENZHEN INNOVA NANOBODI CO LTD, dated 2021)", "binders": {"B1": {"name": "带有化学发光区序列的纳米抗体1C5-HAP (other)", "chain": "QVQLQESGGGLVQAGGSLRLSCKASERTFSSYSMAWYRQAPGKKREFVASISWDDERTYYTDSVKGRFTISRPNAKNTVYLQMNSLKPEDTAVYYCAVGGLSDGLGPSYDYWGQGTQVTVSSGGGGSGGGGSGGGGSIIPVEEENPDFWNREAAEALGAAKKLQPAQTAAKNLIIFLGDGMGVSTVTAARILKGQKKDKLGPEIPLAMDRFPYVALSKTYNVDKHVPDSGATATAYLCGVKGNFQTIGLSAAARFNQCNTTRGNEVISVMNRAKKAGKSVGVVTTTRVQHASPAGTYAHTVNRNWYSDADVPASARQEGCQDIATQLISNMDIDVILGGGRKYMFRMGTPDPEYPDDYSQGGTRLDGKNLVQEWLAKRQGARYVWNRTELMQASLDPSVTHLMGLFEPGDMKYEIHRDSTLDPSLMEMTEAALRLLSRNPRGFFLFVEGGRIDHGHHESRAYRALTETIMFDDAIERAGQLTSEEDTLSLVTADHSHVFSFGGYPLRGSSIFGLAPGKARDRKAYTVLLYGNGPGYVLKDGARPDVTESESGSPEYRQQSAVPLDEETHAGEDVAVFARGPQAHLVHGVQEQTFIAHVMAFAACLEPYTACDLAPPAGTTD", "notes": "Expressed in 293 cells"}}, "molecular_target": "T1, 血清标本中的AFP抗原 (UniProt P02771 19-609)", "T1 construct": "also called 质控血清AFP; 标准血清中的AFP", "T1 sequence (looked up)": "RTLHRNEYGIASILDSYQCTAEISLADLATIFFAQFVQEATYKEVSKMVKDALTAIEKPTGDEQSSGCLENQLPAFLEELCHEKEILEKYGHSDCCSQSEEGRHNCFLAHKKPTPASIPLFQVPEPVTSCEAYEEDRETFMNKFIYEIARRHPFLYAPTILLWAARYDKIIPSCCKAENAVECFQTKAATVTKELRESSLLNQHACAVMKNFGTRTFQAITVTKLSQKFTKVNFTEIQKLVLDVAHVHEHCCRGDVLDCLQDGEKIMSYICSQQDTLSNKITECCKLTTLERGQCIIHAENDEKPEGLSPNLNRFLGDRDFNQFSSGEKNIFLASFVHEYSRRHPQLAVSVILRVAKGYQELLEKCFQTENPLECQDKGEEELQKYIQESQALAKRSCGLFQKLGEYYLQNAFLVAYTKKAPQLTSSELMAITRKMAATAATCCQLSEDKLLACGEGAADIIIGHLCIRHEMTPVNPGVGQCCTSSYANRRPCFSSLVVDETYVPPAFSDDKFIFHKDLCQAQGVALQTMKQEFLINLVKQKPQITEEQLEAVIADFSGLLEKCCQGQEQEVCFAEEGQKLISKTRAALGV", "assay": "double-antibody sandwich chemiluminescent immunoassay, detection antibody", "data": [{"binder": "B1", "values": [{"measurement": "binding result", "result": "binds"}]}]}
